We go through six molecules from patent US20140275487A1 (VIB VZW, published 2014).

For the experiment, the target named is T1, agonist-bound β2AR-356 reconstituted at high density into phospholipid vesicles (UniProt P07550 1-365).
T1 construct: Solid phase coated on Maxisorb plates for ELISA; also called purified receptor alone; reconstituted receptor alone
Description: ELISA on purified receptor alone. (An ELISA detects its analyte on a solid surface through an enzyme-linked reagent.)

B1: Nanobody 40 (CA4440) (VHH)
VHH: QVQLQESGGGLVQAGGSLRLSCAVSGTIFDITPMGWYRQTPGKQREVVADLTSRGTTNYADSVKGRFTISRDNAKKMLYLQMNSLKSDDTGVYYCNVKRWGGIGWNDYWGQGTQVTVSS
notes: Tested as periplasmic extract in ELISA; also called Nb40
For B1, the binding result is “no binding”.

B2: Nanobody 36 (CA4436) (VHH)
VHH: QVQLQESGGGSVQAGGSLRLSCTVSGTIFSVTVMGWYRQAPGKQRELVAGFTNTRNTNYVDSVKGRFTISKDSAKNTMYLQMNSLKPEDTAVYYCNVRRWGGTNWNDYWGQGTQVTVSS
notes: also called Nb36
Regarding B2, the binding result was “no binding”.

B3: Nanobody 33 (CA4433) (VHH)
VHH: QVQLQESGGGLVQPGGSLRLSCAASGFTFSNYVMNWVRQAPGKGLEWVSDISNGGGTTSYASSVKGRFTISRDNAKNTLYLQMNGLKPADTAVYYCARCPAPFTNDCMDITSTTYAYRGQGTQVTVSS
notes: Tested as periplasmic extract in ELISA; also called Nb33
As to B3, the binding result was “no binding”.

B4: Nanobody 35 (CA4435) (VHH)
VHH: QVQLQESGGGLVQPGGSLRLSCAASGFTFSNYKMNWVRQAPGKGLEWVSDISQSGASISYTGSVKGRFTISRDNAKNTLYLQMNSLKPEDTAVYYCARCPAPFTRDCFDVTSTTYAYRGQGTQVTVSS
notes: Llama VHH raised against the BS2G cross-linked β2AR:Gs:BI167107 complex; expressed in E. coli periplasm; also called Nb35; NB35
For the molecule B4, the binding result was “no binding”.

B5: Nanobody 37 (CA4437) (VHH)
VHH: QVQLQESGGGFVQAGGSLRLSCAASGSIFSKNTMAWFRQAPGKERELVAASPTGGSTAYKDSVKGRFTISRDSAKNTVLLQMNVLKPEDTAVYYCHLRQNNRGSWFHYWGQGTQVTVSS
notes: also called Nb37
In the case of B5, the binding result was “no binding”.

B6: Nanobody 41 (CA4441) (VHH)
VHH: QVQLQESGGGLVQSGGSLRLSCVASGFRFSNFPMMWVRQAPGKGLEWVSLISIGGSTTNYADSVKGRFTISRDNAKNTLFLQMNSLKPEDTAVYYCAKYLGRLVPPTTEGQGTQVTVSS
notes: Tested as periplasmic extract in ELISA; also called Nb41
Take B6: the binding result was “no binding”.
